We go through two molecules from patent US20130184211A1 (NEW YORK UNIVERSITY, published 2013).

The target of experiment [1] is T1, 1:1 binary complex of the ectodomains of FGFR1c and Klotho (human; murine, UniProt O35082 35-982).
T1 construct: range 35-982; also called FGFR1c-Klotho complex; binary FGFR1c-Klotho complex; not shown: C-terminal FLAG tag
T1 sequence 1: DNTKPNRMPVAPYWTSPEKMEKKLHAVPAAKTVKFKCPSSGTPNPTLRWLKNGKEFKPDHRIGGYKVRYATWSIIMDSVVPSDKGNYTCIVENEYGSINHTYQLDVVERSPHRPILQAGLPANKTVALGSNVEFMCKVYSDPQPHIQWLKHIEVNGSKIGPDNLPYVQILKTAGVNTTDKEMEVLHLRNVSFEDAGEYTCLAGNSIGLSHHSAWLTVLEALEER
T1 sequence 2: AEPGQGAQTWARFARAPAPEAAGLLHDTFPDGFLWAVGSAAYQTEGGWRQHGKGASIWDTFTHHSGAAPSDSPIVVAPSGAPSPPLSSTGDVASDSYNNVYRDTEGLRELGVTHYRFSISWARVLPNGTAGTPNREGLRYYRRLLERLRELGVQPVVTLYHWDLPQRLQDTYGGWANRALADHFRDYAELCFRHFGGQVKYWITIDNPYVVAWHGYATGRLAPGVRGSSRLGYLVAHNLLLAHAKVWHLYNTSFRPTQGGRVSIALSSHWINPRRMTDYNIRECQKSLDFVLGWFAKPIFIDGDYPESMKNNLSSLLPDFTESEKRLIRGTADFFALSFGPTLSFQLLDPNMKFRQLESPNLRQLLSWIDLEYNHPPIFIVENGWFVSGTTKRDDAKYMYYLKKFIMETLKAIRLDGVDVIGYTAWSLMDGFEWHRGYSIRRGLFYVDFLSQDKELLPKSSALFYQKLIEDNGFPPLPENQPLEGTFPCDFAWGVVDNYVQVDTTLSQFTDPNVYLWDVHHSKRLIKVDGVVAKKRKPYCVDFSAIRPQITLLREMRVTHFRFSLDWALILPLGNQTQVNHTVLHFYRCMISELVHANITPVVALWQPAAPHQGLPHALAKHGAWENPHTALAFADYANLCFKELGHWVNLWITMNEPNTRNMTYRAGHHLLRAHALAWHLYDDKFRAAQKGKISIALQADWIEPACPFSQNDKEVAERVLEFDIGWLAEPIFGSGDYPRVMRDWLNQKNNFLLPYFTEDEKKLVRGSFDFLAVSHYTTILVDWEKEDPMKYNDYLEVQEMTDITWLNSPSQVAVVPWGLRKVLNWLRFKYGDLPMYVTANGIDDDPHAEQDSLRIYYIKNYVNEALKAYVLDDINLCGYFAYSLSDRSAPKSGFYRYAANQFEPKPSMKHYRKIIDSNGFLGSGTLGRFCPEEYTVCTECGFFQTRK
The experiment is described as follows: SPR competition dose-response: FGF23^180-205 mixed with a fixed concentration of FGFR1c-Klotho, immobilized FGF23^28-251 as competitor; averaged data of two to three experiments. The text has this: To analyze FGF23 binding to the binary FGFR1c-Klotho complex, FGF23²⁸⁻²⁵¹ was coupled to a chip, and increasing concentrations of 1:1 complex of the ectodomains of FGFR1c and Klotho in HBS-EP buffer were passed over the chip. To measure binding of the C-terminal tail of FGF23 to the binary FGFR1c-Klotho complex, FGF23¹⁸⁰⁻²⁵¹ was immobilized on a chip, and increasing concentrations of 1:1 complex of the ectodomains of FGFR1c and Klotho in HBS-EP buffer were passed over the chip. To examine whether the C-terminal tail of FGF23 can compete with full-length FGF23 for binding to the binary FGFR1c-Klotho complex, FGF23²⁸⁻²⁵¹ was immobilized on a chip. Increasing concentrations of FGF23¹⁸⁰⁻²⁵¹ were mixed with a fixed concentration of 1:1 complex of the ectodomains of FGFR1c and Klotho in HBS-EP buffer, and the mixtures were passed over the chip. As a control, competition of FGF23 in solution with immobilized FGF23 for binding to the binary FGFR1c-Klotho complex was studied. Increasing concentrations of FGF23²⁸⁻²⁵¹ were mixed with a fixed concentration of 1:1 complex of the ectodomains of FGFR1c and Klotho in HBS-EP buffer, and the mixtures were passed over the FGF23 chip. […] As a control, competition of FGF23 C-terminal tail peptide in solution with immobilized FGF23 C-terminal tail peptide for binding to the binary FGFR1c-Klotho complex was analyzed. […]

For experiment [2], the target named is T2, complex of V5-tagged FGFR4 and FLAG-tagged membrane-spanning murine Klotho isolated from transfected … (murine, UniProt O35082 35-1014).
T2 construct: Isolated from cell lysate on anti-V5 agarose beads; also called FGFR4-Klotho complex; binary FGFR-Klotho complex; not shown: FGFR4, V5-tagged, expressed from a vector in HEK293-Klotho cells
The experiment is described as follows: co-immunoprecipitation competition; competitor FGF23^28-251 (1 nM). An excerpt: (§1) Co-immunoprecipitation may also be used to determine that an agent specifically binds the binary FGFR-Klotho complex. One aspect of the present invention utilizes co-immunoprecipitation studies. Subconfluent cultures of a HEK293 cell line ectopically expressing the FLAG-tagged membrane-spanning form of murine Klotho were transfected with expression vectors for V5-tagged FGFR1c, FGFR3c, or FGFR4. Two days later, the cells were lysed, and FGFR-Klotho complexes were isolated from cell lysate using anti-V5 agarose beads. The beads were then incubated with either FGF23¹⁸⁰⁻²⁵¹ or FGF23²⁸⁻²⁵¹ alone, or with mixtures of FGF23²⁸⁻²⁵¹ with either increasing FGF23¹⁸⁰⁻²⁵¹ or increasing FGF23¹⁸⁰⁻²⁰⁵. Bead-bound proteins were resolved on SDS-polyacrylamide gels, transferred to nitrocellulose membranes, and labeled using antibodies to Klotho, FGF23, and V5 epitope tag.

Experiment [3] has as its target T3, complex of V5-tagged FGFR3c and FLAG-tagged membrane-spanning murine Klotho isolated from transfected … (murine, UniProt O35082 35-1014).
T3 construct: Isolated from cell lysate on anti-V5 agarose beads; also called FGFR3c-Klotho complex; binary FGFR-Klotho complex; not shown: FGFR3c, V5-tagged, expressed from a vector in HEK293-Klotho cells
The description is as above.
Description: as §1

T3 sequence (O35082 35-1014, one chain of several): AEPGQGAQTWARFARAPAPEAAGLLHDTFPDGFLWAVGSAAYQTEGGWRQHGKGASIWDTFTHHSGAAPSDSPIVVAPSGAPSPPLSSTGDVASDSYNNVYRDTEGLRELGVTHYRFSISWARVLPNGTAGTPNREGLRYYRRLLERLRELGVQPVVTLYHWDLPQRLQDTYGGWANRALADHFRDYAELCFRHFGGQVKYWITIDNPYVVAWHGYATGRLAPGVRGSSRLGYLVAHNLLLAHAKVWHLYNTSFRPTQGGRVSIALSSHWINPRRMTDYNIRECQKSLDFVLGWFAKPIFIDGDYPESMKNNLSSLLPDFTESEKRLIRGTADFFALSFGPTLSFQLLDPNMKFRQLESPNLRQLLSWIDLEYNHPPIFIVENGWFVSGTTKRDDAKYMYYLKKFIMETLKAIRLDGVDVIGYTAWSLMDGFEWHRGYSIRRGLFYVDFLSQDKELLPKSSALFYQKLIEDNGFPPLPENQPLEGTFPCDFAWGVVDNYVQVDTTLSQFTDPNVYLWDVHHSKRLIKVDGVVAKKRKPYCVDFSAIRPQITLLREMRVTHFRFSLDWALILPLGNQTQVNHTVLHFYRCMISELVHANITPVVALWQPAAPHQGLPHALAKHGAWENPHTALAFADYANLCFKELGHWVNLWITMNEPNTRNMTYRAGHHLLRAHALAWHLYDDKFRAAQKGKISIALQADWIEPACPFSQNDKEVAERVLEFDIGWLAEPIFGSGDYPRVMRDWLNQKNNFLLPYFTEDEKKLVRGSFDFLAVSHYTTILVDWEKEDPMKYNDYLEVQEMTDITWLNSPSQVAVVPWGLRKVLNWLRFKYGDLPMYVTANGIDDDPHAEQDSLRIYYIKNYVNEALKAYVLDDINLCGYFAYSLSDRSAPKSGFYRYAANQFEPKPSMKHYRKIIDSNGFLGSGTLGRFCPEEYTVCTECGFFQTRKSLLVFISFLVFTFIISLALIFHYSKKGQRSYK

B1: FGF23 C-terminal region peptide (S180 to S205), FGF23^180-205 (peptide)
peptide: SAEDDSERDPLNVLKPRARMTPAPAS
notes: Made by solid phase synthesis (GenScript)
As for B1, in experiment [1], the “IC50 (read off the curve)” value is around 100 nM.

B2: N-terminally hexahistidine-tagged 72-amino acid C-terminal tail of human FGF23 (S180 to I251), FGF23^180-251 (peptide)
peptide: SAEDDSERDPLNVLKPRARMTPAPASCSQELPSAEDNSPMASDPLGVVRGGRVNTHAGGTGPEGCRPFAKFI
notes: Expressed in E. coli; also called FGF23 C-terminal tail peptide; C-terminal tail of FGF23; not shown: N-terminal hexahistidine tag (six His)
Regarding B2, the “molar excess over FGF23^28-251 that completely blocked its binding” value in experiment [2] and in experiment [3] was 76 fold molar excess in each case.
